Measurements published in patent US20100068195A1.
Blank lines part the entries; values can stand above or below the binder they belong to.

What was measured:
[1] = target: mannose-6-phosphate (M6P) receptor; assay: M6P receptor affinity column (Affi-Gel 15): 6 ug GALNS loaded, eluted with a mannose-6-phosphate gradient, quantified by GALNS ELISA
[2] = target: mannose-6-phosphate (M6P) receptor; assay: M6P receptor plate binding assay: plates coated with 4 ug/mL M6P receptor, GALNS 0.16-10 nM, bound enzyme read by 4MU-Gal-6S activity, single-site fit
[3] = target: mannose-6-phosphate (M6P) receptor; assay: M6P receptor plate binding assay (receptor-coated plate, bound enzyme read by activity)

M6P Receptor Column Binding: % Bound [1]: 56%
Kd [2]: 2.4 nM
B1: recombinant human N-acetylgalactosamine-6-sulfatase (GALNS) produced from G71S clone 4 (enzyme)
chain: APQPPNILLLLMDDMGWGDLGVYGEPSRETPNLDRMAAEGLLFPNFYSANPLCSPSRAALLTGRLPIRNGFYTTNAHARNAYTPQEIVGGIPDSEQLLPELLKKAGYVSKIVGKWHLGHRPQFHPLKHGFDEWFGSPNCHFGPYDNKARPNIPVYRDWEMVGRYYEEFPINLKTGEANLTQIYLQEALDFIKRQARHHPFFLYWAVDATHAPVYASKPFLGTSQRGRYGDAVREIDDSIGKILELLQDLHVADNTFVFFTSDNGAALISAPEQGGSNGPFLCGKQTTFEGGMREPALAWWPGHVTAGQVSHQLGSIMDLFTTSLALAGLTPPSDRAIDGLNLLPTLLQGRLMDRPIFYYRGDTLMAATLGQHKAHFWTWTNSWENFRQGIDFCPGQNVSGVTTHNLEDHTKLPLIFHLGRDPGERFPLSFASAEYQEALSRITSVVQQHQEALVPAQPQLNVCNWAVMNWAPPGCEKLGKCLTPPESIPKKCLWSH
modifications: Cys at position 53 of the precursor (position 79 of SEQ ID NO:4) converted to Calpha-formylglycine (FGly), about 90%; N-linked glycans at Asn178 (bis-phosphorylated mannose 7, BPM7) and Asn397 (oligomannose-type), numbered on the secreted polypeptide

Kd [3]: 5.7 nM
B2: recombinant human N-acetylgalactosamine-6-sulfatase (GALNS) produced from G71S clone C2 (enzyme)
chain: B1 chain
modifications: active site Cys at position 53 of the precursor (position 79 of SEQ ID NO:4) converted to Calpha-formylglycine (percent not printed for this clone); N-linked glycans at Asn178 and Asn397, bis-phosphorylated oligomannose 0.69 mol/mol
